# From IntAct's records for PubMed 10102273
# B1: Forkhead box protein O3 (Homo sapiens), O43524 (parent)
# chain: MAEAPASPAPLSPLEVELDPEFEPQSRPRSCTWPLQRPELQASPAKPSGETAADSMIPEEEDDEDDEDGGGRAGSAMAIGGGGGSGTLGSGLLLEDSARVLAPGGQDPGSGPATAAGGLSGGTQALLQPQQPLPPPQPGAAGGSGQPRKCSSRRNAWGNLSYADLITRAIESSPDKRLTLSQIYEWMVRCVPYFKDKGDSNSSAGWKNSIRHNLSLHSRFMRVQNEGTGKSSWWIINPDGGKSGKAPRRRAVSMDNSNKYTKSRGRAAKKKAALQTAPESADDSPSQLSKWPGSPTSRSSDELDAWTDFRSRTNSNASTVSGRLSPIMASTELDEVQDDDAPLSPMLYSSSASLSPSVSKPCTVELPRLTDMAGTMNLNDGLTENLMDDLLDNITLPPSQPSPTGGLMQRSSSFPYTTKGSGLGSPTSSFNSTVFGPSSLNSLRQSPMQTIQENKPATFSSMSHYGNQTLQDLLTSDSLSHSDVMMTQSDPLMSQASTAVSAQNSRRNVMLRNDPMMSFAAQPNQGSLVNQNLLHHQHQTQGALGGSRALSNSVSNMGLSESSSLGSAKHQQQSPVSQSMQTLSDSLSGSSLYSTSANLPVMGHEKFPSDLDLDMFNGSLECDMESIIRSELMDADGLDFNFDSLISTQNVVGLNVGNFTGAKQASSQSWVPG
# Variants of: B1
# Conditions: with 1433z_human YWHAZ
row,effect of a mutation on the interaction,Variant
1,decreasing interaction strength,S253A
2,with no effect,S315A

# The next lines start with the variant.
row,Variant,effect of a mutation on the interaction
1,T32A,decreasing interaction strength
2,T32A;S253A,disrupting interaction strength

# Variants of: B1
# Conditions: with akt1_human AKT1, P31749
# akt1_human AKT1, P31749, sequence (P31749 whole entry): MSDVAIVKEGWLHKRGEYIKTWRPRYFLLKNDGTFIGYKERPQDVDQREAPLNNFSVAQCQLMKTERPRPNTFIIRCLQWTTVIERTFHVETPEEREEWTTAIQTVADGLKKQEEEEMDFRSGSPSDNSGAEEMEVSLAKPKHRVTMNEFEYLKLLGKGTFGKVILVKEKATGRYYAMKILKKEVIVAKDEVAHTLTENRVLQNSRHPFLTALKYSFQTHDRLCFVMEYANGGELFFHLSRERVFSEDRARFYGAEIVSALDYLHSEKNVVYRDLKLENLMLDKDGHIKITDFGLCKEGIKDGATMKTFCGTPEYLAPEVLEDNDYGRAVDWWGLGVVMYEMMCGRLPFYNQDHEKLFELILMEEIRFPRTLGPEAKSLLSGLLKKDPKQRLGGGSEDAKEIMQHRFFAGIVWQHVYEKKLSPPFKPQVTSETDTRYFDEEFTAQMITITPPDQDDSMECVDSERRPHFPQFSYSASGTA
row,effect of a mutation on the interaction,Variant
1,with no effect,S315A
